Experimental data: article PMC12325699, “Utilizing native nanodiscs to isolate active TRPC3 channels and expand structural analysis capabilities” (Scientific Reports, 2025)

Biological target: the molecule itself
Test: negative-stain electron microscopy; purified TRPC3 at 0.1 mg/mL, extracted from Expi293F membranes with DDM or with DDDG, on a TEM grid, stained with 1% uranyl acetate

B1: canonical transient receptor potential channel 3 (TRPC3), TRPC3-YFP-3xFLAG construct (natural protein, human, UniProt Q13507-3 1-848, looked up)
chain: MEGSPSLRRMTVMREKGRRQAVRGPAFMFNDRGTSLTAEEERFLDAAEYGNIPVVRKMLEESKTLNVNCVDYMGQNALQLAVGNEHLEVTELLLKKENLARIGDALLLAISKGYVRIVEAILNHPGFAASKRLTLSPCEQELQDDDFYAYDEDGTRFSPDITPIILAAHCQKYEVVHMLLMKGARIERPHDYFCKCGDCMEKQRHDSFSHSRSRINAYKGLASPAYLSLSSEDPVLTALELSNELAKLANIEKEFKNDYRKLSMQCKDFVVGVLDLCRDSEEVEAILNGDLESAEPLEVHRHKASLSRVKLAIKYEVKKFVAHPNCQQQLLTIWYENLSGLREQTIAIKCLVVLVVALGLPFLAIGYWIAPCSRLGKILRSPFMKFVAHAASFIIFLGLLVFNASDRFEGITTLPNITVTDYPKQIFRVKTTQFTWTEMLIMVWVLGMMWSECKELWLEGPREYILQLWNVLDFGMLSIFIAAFTARFLAFLQATKAQQYVDSYVQESDLSEVTLPPEIQYFTYARDKWLPSDPQIISEGLYAIAVVLSFSRIAYILPANESFGPLQISLGRTVKDIFKFMVLFIMVFFAFMIGMFILYSYYLGAKVNAAFTTVEESFKTLFWSIFGLSEVTSVVLKYDHKFIENIGYVLYGIYNVTMVVVLLNMLIAMINSSYQEIEDDSDVEWKFARSKLWLSYFDDGKTLPPPFSLVPSPKSFVYFIMRIVNFPKCRRRRLQKDIEMGMGNSKSRLNLFTQSNSRVFESHSFNSILNQPTRYQQIMKRLIKRYVLKAQVDKENDEVNEGELKEIKQDISSLRYELLEDKSQATEELAILIHKLSEKLNPSMLRCE
notes: a TEV site stands between the tags and TRPC3 by the plasmid's name; The protein was purified by its FLAG tag; no TEV cleavage step is described, so the tags were probably still on the protein in the electron microscopy; also called TRPC3–3 x FLAG–YFP; 3xFLAG-YFP; source: Expi293F, transiently transfected; membranes extracted with DDM or DDDG
- stoichiometry N: 4
